From publication PMC6938348 (PLoS ONE, 2019)

Assays:
[1] = target: T1, Her2 on cells (SKOV3, JIMT-1, MCF7) (Homo sapiens (endogenous in SKOV3, …, UniProt P04626)); assay: cell-based or functional assay
[2] = target: T1, Her2 on cells (SKOV3, JIMT-1, MCF7); assay: flow cytometry on cells; saturation binding of full-size antibodies on live high-Her2 SKOV3 cells, 4°C 2 h, 0 to 200 nM or 1 μM, washed, anti-human Fc AlexaFluor488-(Fab')2 detection; apparent KD; settings: one partner purified
soluble Her2 ectodomain [3] = target: T2, soluble Her2 ectodomain (Homo sapiens (assumed; species and …, UniProt P04626); assay: SPR; antibody captured on an anti-hFc CM-5 surface, soluble Her2 ectodomain flowed (monovalent binding); single cycle kinetics in duplicate, 25°C, PBS with 3.4 mM EDTA and 0.05% Tween 20; 1:1 binding model; Biacore T200; settings: both partners purified
T2 construct: Her2 ectodomain, soluble

soluble Her2 ectodomain [4] = target: T2, soluble Her2 ectodomain; assay: as above; settings: both partners purified; remark: listed apart in the source
[5] = target: T1, Her2 on cells (SKOV3, JIMT-1, MCF7); assay: flow cytometry on cells; saturation binding of full-size antibodies on live low-Her2 MCF7 cells, 4°C 2 h, 0 to 200 nM or 1 μM, washed, anti-human Fc AlexaFluor488-(Fab')2 detection; apparent KD; settings: one partner purified
[6] = target: T1, Her2 on cells (SKOV3, JIMT-1, MCF7); assay: cell-based or functional assay; remark: listed apart in the source

B1: bH1 full-size antibody (Parent 2) (antibody, V domains shown)
VH: not shown
VL: DIQMTQSPSSLSASVGDRVTITCRASQDIPRSISGYVAWYQQKPGKAPKLLIYWGSYLYSGVPSRFSGSGSGTDFTLTISSLQPEDFATYYCQQHYTTPPTFGQGTKVEIK
notes: heavy chain of bH1 (Parent 2) as full-size human IgG; light chain of bH1 (Parent 2), a Herceptin variant with a 4-residue insertion in CDR-L1 and a few point mutations; FSA; IgG1 is surmised (Synagis is called the IgG1 isotype control); also called 2–13; source: CHO-3E7, co-transfected, purified (MabSelect Sure); copies: 2 + 2
[1]
  IC50 of cytotoxicity, indirect ADC screen (DM1-conjugated secondary antibody), JIMT1 cells: 7.4 nM
  IC50 of cytotoxicity, indirect ADC screen (DM1-conjugated secondary antibody), MCF7 cells: 8.2 nM
  IC50 of cytotoxicity, indirect ADC screen (DM1-conjugated secondary antibody), SKOV3 cells: 0.021 nM
  IC50 of cytotoxicity, indirect ADC screen (MMAE-conjugated secondary antibody), JIMT1 cells: 10.3 nM
  IC50 of cytotoxicity, indirect ADC screen (MMAE-conjugated secondary antibody), MCF7 cells: 35.6 nM
  IC50 of cytotoxicity, indirect ADC screen (MMAE-conjugated secondary antibody), SKOV3 cells: 0.078 nM
[2]
  Kd: 2.41 nM
Soluble Her2 ectodomain [3]
  Kd: 14.7 nM
Soluble Her2 ectodomain [4]
  koff: 0.000741 s⁻¹
  kon: 100000 M⁻¹ s⁻¹
[5]
  Kd: 0.87 nM
[6]
  IC50 of cytotoxicity, antibody directly conjugated to DM1, SKOV3 cells: 0.075 nM
  IC50 of cytotoxicity, antibody directly conjugated to PNU, JIMT1 cells: 0.5 nM
  IC50 of cytotoxicity, antibody directly conjugated to PNU, MCF7 cells: 2.02 nM
  IC50 of cytotoxicity, antibody directly conjugated to PNU, SKOV3 cells: 0.077 nM
